In patent US20230122991A1, “GROWTH FACTOR FORMULATION FOR CONDITION ASSOCIATED WITH OTIC EVENT” (OTONOMY, INC., priority 2020, published 2023):

What was measured:
[1] = system: adult male rats bilaterally exposed to noise; experiment: Noise-induced cochlear synaptopathy, ABR thresholds and wave I amplitude (Example G); type: in vivo, rat
Method: Animals: Male Sprague-Dawley rats (5-6 months of age) were used for efficacy studies and females (2-3 months) were used for pharmacokinetic studies.
Formulations: Human recombinant BDNF was suspended in the thermoreversible polymer Poloxamer 407 (16%) to reach a range of BDNF concentrations.
Intratympanic (IT) injection: Formulations were administered under anesthesia as a single IT injection (20 μl) through the tympanic membrane into the middle ear, targeting the round window membrane (RWM).
Noise-induced cochlear synaptopathy: Rats (n=44 per treatment group) received a single acoustic trauma (105 dB SPL, 8-16 kHz, 1 h) under anesthesia. 24 hours later (Day 1) animals received a single bilateral IT injection of the treatment regimens. Auditory function (ABR and ABR wave 1 amplitude) was monitored at day 1 and then every 7 days for 28 days. At termination (Day 28), cochleae were collected and assessed for evidence of cochlear synaptopathy (IHC synaptic puncta counts).
Intratympanic BDNF improves Auditory Brainstem Response (ABR) thresholds and wave I amplitudes in adult rats. The Auditory Brainstem Response (ABR) is an objective test that measures hearing sensitivity and can identify abnormalities in the peripheral auditory system and the auditory pathway up through the brainstem. […]

[2] = system: SGNs; experiment: SGN complexity, dissociated SGNs (Example D); type: cell-based, rat; conditions: differences upon treatment, FIG. 7D
From the text: SGNs were immunostained, imaged, and batch analyzed with PerkinElmer Harmony 4.6 software. Changes in the complexities of SGNs upon treatment with various agents were examined. […] All of the images in a single well were stitched together and analyzed. SGN somas are shown in the upper right panel and SGN neurites are shown in the lower left panel. As shown in the lower right panel, each neurite tree is assigned to a single cell for analysis. Depending on the stitching, occasionally neurites will not meet the criteria due to gaps that exceed a user-defined threshold.

B1: brain-derived neurotrophic factor (protein, UniProt P23560 129-247, looked up)
Neurotrophic factor BDNF: HSDPARRGELSVCDSISEWVTAADKKTAVDMSGGTVTVLEKVPVSKGQLKQYFYETKCNPMGYTKEGCRGIDKRHWNSQCRTTQSYVRALTMDSKKRIGWRFIRIDTSCVCTLTIKRGR
modifications: Neurotrophic factor BDNF in 16% poloxamer 407 gel
notes: Human recombinant BDNF
B1 was tested, and the ABR threshold shift ([1]; 0.05 mg/ml BDNF in P407, intratympanic injection 24 hours after noise exposure, ABR at days 1, 7, 14, and 28, vs P407 vehicle alone, FIG. 12A) was “more rapid recovery of initial threshold shifts and overall reduced levels of hearing loss”, the “ABR wave I amplitudes” value ([1]; BDNF in P407 vs vehicle treatment following noise exposure, across many frequencies, FIG. 12C) was “Significant improvements” and the “total neurite length, total number of extremities, segments, and nodes per cell” value [2] was “not statistically significant”.
